{"source": "patent US11590205B2", "about": "“Methods for producing stable therapeutic glucagon formulations in aprotic polar solvents” (Xeris Pharmaceuticals, Inc., priority 2015, dated 2023)", "origin": "cited, not measured here", "conditions": "aqueous", "data": [{"substance": "glucagon", "values": [{"measurement": "solubility at neutral pH", "value": "essentially insoluble"}]}]}
